Results on five molecules are retold here after patent publication US20240200089A1 (AGRIVIDA, published 2024).

Broadly, the EC50 is the concentration that produces a half-maximal response. A low value points to an effect from little substance.

The target of test [1] is T1, chicken interleukin 10 (chicken (Gallus gallus), UniProt Q6A2H4 22-174).
T1 construct: also called cIL-10; cIL10
T1 sequence: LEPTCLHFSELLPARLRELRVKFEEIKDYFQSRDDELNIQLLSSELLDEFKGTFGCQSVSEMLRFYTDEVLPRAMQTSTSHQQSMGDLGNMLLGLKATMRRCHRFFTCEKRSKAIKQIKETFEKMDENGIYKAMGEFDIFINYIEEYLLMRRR
The test can be described thus: ELISA, sdAB titrated on cIL-10 coated plates. (In general: An ELISA detects its analyte on a solid surface through an enzyme-linked reagent.)

Test [2] concerns the target T1, chicken interleukin 10. Nature of the test: cell-based or functional assay.

B1: chIL10sdAB1A11 (VHH, not shown: small tags and cut ends)
VHH: QVQLQESGGGLVQPGGSLRLSCAASGNIFSINTMGWYRQAPGKQRELVASITTGGTTNYEDSVKGRFTISRDNAKKTVYLQMNRLKPEDTAVYYCNHRRSYSGRDYPVYGMDYWGKGTLVTVSS
notes: Llama single domain antibody; also called 1A11 sdAB; 81-IL-bR2-1A11
In the case of B1, in the test with chicken interleukin 10 [1], the EC50 was about 1 nM. For the same molecule, in the test with chicken interleukin 10 [2], the “apparent EC50, recovery of IFN-γ secretion in primary chicken spleen cells treated with ConA and cIL-10” value (shortened to “apparent EC50, recovery”) was found to be 25 nM.

B2: chIL10sdAB1F11 (VHH, not shown: small tags and cut ends)
VHH: QVQLQEFGGGLVQPGGSLRLSCAASGRTGSSYAMGWFRQAPGKEREFVAAISWSGGSTDYADSVKGRFTISRDNAKNTMYLQMNSLKPEDTAVYYCAVDRNLFKLRVAVQEYTNLGQGTQVTVSS
notes: Llama single domain antibody; also called 86-IL-bR2-1F11
Regarding B2, the EC50 with chicken interleukin 10 [1] is about 15 nM. Also, the “apparent EC50, recovery” value in the test with chicken interleukin 10 [2] is 60 nM.

B3: chIL10sdAB1B9 (VHH)
VHH: QVQLQESGGGLVQAGGSLRLSCAASGRTFSSYAWGWFRQAPGKEREFVARISFSGGHTYYSDSVKGRFTISRDNAKNTVYLQMNSLKPEDTAVYYCAADPTPYGLRNERNYPYWGQGTQVTVSS
notes: Llama single domain antibody; The construct used in the ELISA and the cell assay is not described
The molecule B3 gave an EC50 with chicken interleukin 10 [1] of about 35 nM. In the test with chicken interleukin 10 [2], the “apparent EC50, recovery” value amounted to 40 nM.

B4: chIL10sdAB1H1 (VHH)
VHH: QVQLQASGGGLVQAGGSLRLSCAASGRTFNSYAWGWFRQAPGKERGFVARISFSGGHTYYSDSVKGRFTISRDNAKNSVYLQMNSLKPEDTAVYYCAADPTPYGLRNERNYHYWGQGTQVTVSS
notes: Llama single domain antibody; The construct used in the ELISA is not described
B4 came in with an EC50 with chicken interleukin 10 [1] of 20 nM.

B5: chIL10sdAB1D6 (VHH)
VHH: QVQLQASGGGLVQAGGSLRLSCQASESISSINTMGWFRQASGEEREFVAAIESGGATAYAESAKGRFTISRDNAKNTVYLQMNSLKPEDTAVYYCAAGVPTYDDDAMPISWRFWGRGTLVTVSS
notes: Llama single domain antibody; The construct used in the ELISA is not described; also called 44-IL-bR2-1D6
In the test with chicken interleukin 10 [1], B5 displayed an EC50 of about 100 nM.
